B1: BKO-4A8 combinatorial variant 102c (antibody, human IgG4 S228P, lambda, V domains shown)
VH: EVQLLESGGGLVQPGGSLRLSCAASGFTFSSSTQSWVRQPPGKGLEWVSAISGRGRSTYYADSVKGRFTISRDNSKNTLYLQMNSLRAEDTAVYYCAIQEGYWGQGILVTVSS
VL: QSALTQPPSASGSPGQSVTISCIGTSSDVGGYNYVSWYQQHPGKAPKLMIYEVSKRPSGVPDRFSGSKSGNTASLTVSGLQAEDEADYYCSSYAGSNNFGVFGGGTKLTVLG
notes: IgG4 S228P, lambda
B2: BKO-4A8 combinatorial variant 106c (antibody, human IgG4 S228P, lambda, V domains shown)
VH: B1 VH with R54S, R56G
VL: B1 VL
notes: IgG4 S228P, lambda
B3: BKO-4F10 (antibody, human IgG4 S228P, lambda)
heavy: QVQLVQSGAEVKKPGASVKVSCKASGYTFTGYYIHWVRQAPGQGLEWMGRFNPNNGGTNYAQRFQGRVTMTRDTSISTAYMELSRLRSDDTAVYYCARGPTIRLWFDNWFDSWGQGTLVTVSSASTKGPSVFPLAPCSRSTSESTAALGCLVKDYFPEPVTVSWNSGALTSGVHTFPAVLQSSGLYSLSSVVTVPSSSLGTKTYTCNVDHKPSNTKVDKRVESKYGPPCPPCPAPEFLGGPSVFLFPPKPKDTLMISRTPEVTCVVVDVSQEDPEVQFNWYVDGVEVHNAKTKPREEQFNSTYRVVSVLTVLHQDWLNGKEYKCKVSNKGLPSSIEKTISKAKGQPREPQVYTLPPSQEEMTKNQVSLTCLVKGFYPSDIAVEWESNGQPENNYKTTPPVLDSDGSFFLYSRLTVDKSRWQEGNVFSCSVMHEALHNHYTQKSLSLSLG
light: QSALTQPASVSGSPGQSITISCTGTSSDVGGYNYVSWYQQHPGKAPKLMIYDVSNRPSGISNRFSGSKSGNTASLTISGLQAEDEADYYCSSYTSSSTWVFGGGTKLTVLGQPKAAPSVTLFPPSSEELQANKATLVCLISDFYPGAVTVAWKADSSPVKAGVETTTPSKQSNNKYAASSYLSLTPEQWKSHRSYSCQVTHEGSTVEKTVAPTECS
notes: recombinant human IgG4 S228P, lambda
B4: BKO-5G6_c (antibody, human IgG4 S228P, lambda)
heavy: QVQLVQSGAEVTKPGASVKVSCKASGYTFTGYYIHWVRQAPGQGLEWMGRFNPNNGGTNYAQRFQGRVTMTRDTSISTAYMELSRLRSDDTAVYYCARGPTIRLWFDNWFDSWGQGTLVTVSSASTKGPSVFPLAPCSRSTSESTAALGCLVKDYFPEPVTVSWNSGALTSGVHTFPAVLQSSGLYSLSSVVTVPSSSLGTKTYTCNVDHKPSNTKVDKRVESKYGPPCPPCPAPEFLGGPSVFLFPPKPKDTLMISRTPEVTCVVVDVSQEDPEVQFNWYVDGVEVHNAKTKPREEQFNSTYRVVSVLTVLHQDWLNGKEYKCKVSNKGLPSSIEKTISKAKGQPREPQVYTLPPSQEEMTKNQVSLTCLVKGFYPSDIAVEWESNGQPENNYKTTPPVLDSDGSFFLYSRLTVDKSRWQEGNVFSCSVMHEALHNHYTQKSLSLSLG
light: B3 light with K106T
notes: as for B3
B5: BKO-10G10 (antibody, human IgG4 S228P, lambda, V domains shown)
VH: QLQLQESGPGLVKPSETLSLTCTVSGGSIRRSSYYWGWIRQPPGKGLEWIGSFYNSGNTYYKPSLKSRVAISVDTPKNQFSLKLSSVTAADTAVYYCARGYSSGGFDPWGQGTLVTVSS
VL: QSALTQPASVSGSPGQSITISCTGTSSDVGGYNYVSWCQQHPGKAPKIMIFDVSNRPSGVSNRFSGSKSGNTASLTISGLQAEDEADYYCSSYTSSSTWVFGGGTRLTVLG
notes: as for B3
B6: BKO-9A8 (antibody, human IgG4 S228P, lambda, V domains shown)
VH: EVQLLESGGGLVQTGGSLRLSCAASGFTFSSNTMSWVRQAPGKGLEWVSAISGSGGRTYYVDSVKGRFTISRDNSKNTLYLQMHSLRAEDTAVYYCAIQLGSWGQGILVTVSS
VL: B1 VL with I23T, G31A, S54T, S96N
notes: as for B3
B7: BKO-7G10_a (antibody, human IgG4 S228P, lambda, V domains shown)
VH: EVQLLESGGGLVQPGGSLRLSCAVSGFTFSNYAMTWVRQAPGKGLEWVSAISGRGSRTYYADSVKGRFTISRDTSKNTLYLQMNSLRAEDTAVYYCAKMDYWGQGTLVTVSS
VL: B1 VL with I23T, Y51F
notes: as for B3
B8: BKO-3F4 (antibody, human IgG4 S228P, lambda, V domains shown)
VH: EVQLLESGGGLVQPGGSLRLSCAASGLTFSSYAMSWVRQAPGKGLEWVSAISGSGGKIYYADSVKGRFTISRDNSKNTLYLQMNSLRAEDTAVYYCAIQVGYWGQGTLVTVSS
VL: B1 VL with I20M, I23T, S36T, D62A, S96P
notes: as for B3
B9: BKO-8B6 (antibody, human IgG4 S228P, lambda, V domains shown)
VH: EVQLLESGGGLVQPGGSLRLSCAASGFTFSSNAMSWVRQAPGKGLEWVSAISNSGRSTYYADSVKGRFTISRDSSKNTLYLLMNSLRAEDSAVYYCAIKLGYWGQGSLVTVSS
VL: B1 VL with I23T, I50M, N97D, K107R
notes: as for B3
B10: BKO-7H8_b (antibody, human IgG4 S228P, lambda, V domains shown)
VH: B1 VH with F27Y, S30T, Q34M, P40A, S49T, R56G, S57R, E100L, Y102N
VL: B1 VL with I23T, V29I, M49V, S54N, K55M, D62A, S96N, N97D, T109S
notes: as for B3
B11: BKO-5G11 (antibody, human IgG4 S228P, lambda, V domains shown)
VH: B7 VH
VL: B1 VL with I23T, Y51F
notes: as for B3
B12: BKO-8H8_b (antibody, human IgG4 S228P, lambda, V domains shown)
VH: B8 VH with F29V, R87S
VL: B1 VL with I20M, I23T, S36T, M49V, D62V, S96P, V101I
notes: as for B3
B13: BKO-5E8 (antibody, human IgG4 S228P, lambda, V domains shown)
VH: EVQLLESGGGLVQPGGSLRLSCAASGFTFSSYAMSWVRQAPGRGLEWVSAIRGSGAGTYYADSMKGRFTISRDNSKDTLYLLMNSLRAEDTAVYYCSKLEAVSGTGKYFQHWGQGTLVTVSS
VL: SYELTQPPSVSVSPGQTANITCSGDTLGDKFACWYQQKPGQSPVLVIYQDTKRPSGIPERFSGSKSGITATLTISGTQAMDEADFYCQAWNSRGVVFGGGTRLTVLG
notes: as for B3
B14: BKO-6A1_b (antibody, human IgG4 S228P, lambda, V domains shown)
VH: QVQLKQWGAGLLKPSETLSLTCAVYGGSFSGYYWTWIRQPPGKGLEWIGEINHSGSTNYNPSLKSRVTMSVDTSKNQFSLKLRSVTAADTAVYYCARGEVRGLITLYWYFDVWGRGSLVTVSS
VL: SSELTQDPAVSVALGQTVRITCQGDSLRSYYASWYQQKPGQAPVLVIYGKNNRPSGIPDRFSGSSSGNTASLTITGAQAEDEADYYCNSRDSSGNHVVFGGGTKLTVLG
notes: as for B3
B15: BKO-8C4 (antibody, human IgG4 S228P, lambda, V domains shown)
VH: QLQLQESGPGLVKPSETLSLTCTVSGGSIRTSSYYWGWIRQPPGKGLEYIGSIYYSGTTYYNPSLKSRVTMSVDTSKNQFSLKLSSVTAADTAVYYCARHGRVREVPPFDYWGQGTLVTVSS
VL: B14 VL with S29Y, G49D, K50E, N52S, T73R, A77T, S92T, V97W, V98A
notes: as for B3
B16: BKO_7C11 (antibody, human IgG4 S228P, lambda, V domains shown)
VH: B14 VH with K5Q, T35S, G55R, S56N, M69I, R83S, L103V, I104F, S117T
VL: B14 VL with D7G, D25N, S29F, K38R, V44I, G49D, N95Y, H96Y, V97M, V98I
notes: as for B3

Where a chain is given by its changes, count along the chain named. Numbers in names are those of the source.

In the first assay the target is T1, human CXCR2 (human, UniProt P25025 1-360).
T1 construct: also called CXC chemokine receptor 2; hCXCR2
T1 sequence: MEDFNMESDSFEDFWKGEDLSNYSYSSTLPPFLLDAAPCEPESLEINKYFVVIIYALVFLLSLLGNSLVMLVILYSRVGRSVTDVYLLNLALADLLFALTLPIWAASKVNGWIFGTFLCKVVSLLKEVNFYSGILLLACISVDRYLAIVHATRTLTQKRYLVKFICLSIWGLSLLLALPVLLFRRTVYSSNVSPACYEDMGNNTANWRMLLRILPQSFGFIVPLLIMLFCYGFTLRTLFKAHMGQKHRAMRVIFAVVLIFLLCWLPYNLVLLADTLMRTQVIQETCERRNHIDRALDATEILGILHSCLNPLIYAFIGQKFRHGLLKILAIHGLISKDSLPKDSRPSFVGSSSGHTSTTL
Description: flow cytometry, CXCR2-transfected Expi293F cells. On the procedure:
(§1) Harvested cells were resuspended in FACS buffer (1×PBS+0.5% (w/v) bovine serum albumin (BSA)+2 mM EDTA pH 7.2). Approximately 2×10⁵ cells were added per well in a 96-well round-bottomed plate. Cells were pelleted by centrifugation at 400 g for 5 mins at 4° C. and supernatants discarded. 25 μL of each test antibody or control antibody was added to the cells and incubated for 30 minutes at 4° C. Cells were washed twice in 100 μL FACS buffer followed by centrifugation at 400 g for 5 mins at 4° C.
(§2) For detection, 50 μL of secondary antibody (Table 2) was added to relevant samples. Commercially available antibodies that bound to transfected CXCR family members were used as positive controls to ensure that the cells were expressing the receptors. Cells were washed twice in 200 μL of FACS buffer followed by centrifugation at 400 g for 5 mins at 4° C. Before sample acquisition, cells were resuspended in 100 μL of FACS buffer. Samples were acquired using the high throughput sampler on a FACSCanto™ II cytometer (Beckton-Dickinson).
A further six heavy chain combinational variants comprising four or more amino acid substitutions were produced as provided in Table 12. […] Each heavy chain was co-expressed with light chain c (SEQ ID NO:110) to produce an antibody variant. Antibodies were purified and tested for CXCR2 binding activity as described in General Methods.
For the molecule B1, the EC50 is 8.7 nM, the “Max binding (MFI Percent of 4A8 WT)” value was found to be 53% and the “Max binding (MFI)” value was determined as 33000 MFI.
Regarding B2, the EC50 was over 100 nM and the “Max binding (MFI)” value came to 11600 MFI.

The target of a further assay is T2, human CXCR1 (human, UniProt P25024 1-350).
T2 sequence: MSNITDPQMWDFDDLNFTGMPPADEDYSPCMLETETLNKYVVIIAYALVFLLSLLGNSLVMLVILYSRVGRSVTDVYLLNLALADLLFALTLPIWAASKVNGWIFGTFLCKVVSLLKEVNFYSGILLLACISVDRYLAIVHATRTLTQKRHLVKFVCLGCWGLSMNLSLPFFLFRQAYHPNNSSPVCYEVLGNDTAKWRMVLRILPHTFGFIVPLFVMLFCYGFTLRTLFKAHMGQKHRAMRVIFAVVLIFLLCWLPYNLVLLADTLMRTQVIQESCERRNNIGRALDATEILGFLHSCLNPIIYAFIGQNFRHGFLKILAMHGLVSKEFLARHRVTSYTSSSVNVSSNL
Description: flow cytometry, transfected Expi293F cells. On the procedure:
as §1, §2
(§3) These antibody variable regions were then generated by gene synthesis and subcloned into mammalian expression vectors as described in General Methods. Antibodies were produced by co-expression of heavy and light chain plasmids in Expi293F™ cells and purified by protein A column chromatography as described in General Methods. Where several heavy and/or light chains were identified from the same hybridoma cells, each heavy chain was paired with each light chain and the resulting antibodies given suffix a, b, c, etc. Purified antibodies were desalted into Sorensen's PBS pH 5.8 and tested by flow cytometry for binding to Expi293F™ cells transfected with human CXCR2 or human CXCR1 and mock transfected Expi293F™ cells.
On the technique in general: A flow cytometer gives signals particle by particle.
In the case of B3, the binding result was “no binding”.
On the same count and under the same terms, with B4 the entry was “no binding”.
As for B5, the binding result is recorded as “no binding”.
As for B6, the binding result is on record as “no binding”.
The same measure, in the same setting: with B7 the entry was “no binding”; with B8, “no binding”; with B9, “no binding”.
For B10, the binding result is reported as “no binding”.
The same measure, in the same setting: the same measure for B11: “no binding”; for B12: “no binding”.
Regarding B13, the binding result is listed as “no binding”.
Regarding B14, the binding result is “no binding”.
Turning to B15, the binding result is recorded as “no binding”.
Still for that read-out and setting: the same measure for B16: “no binding”.

In a further assay the target is T1, human CXCR2. Description: flow cytometry, transfected Expi293F cells. On the procedure:
as §1, §2, §3
As for B3, the binding result is “binds”.
Regarding B4, the binding result is “binds”.
Same read-out and setting: the same measure for B5: “binds”; for B6: “binds”.
Turning to B7, the binding result is reported as “binds”.
Turning to B8, the binding result is “binds”.
The same measure, in the same setting: with B9 the entry was “binds”.
Regarding B10, the binding result is “binds”.
Turning to B11, the binding result is “binds”.
Still for that read-out and setting: with B12 the entry was “binds”.
The same measure, in the same setting: the same measure for B13: “binds”.
Same read-out and setting: with B14 the entry was “binds”; with B15, “binds”.
For B16, the binding result is listed as “binds”.

A word on the EC50: it is the concentration at which the effect is half-maximal.

Values taken from US20240301076A1 (CEPHALON, published 2024).
